Data: patent US20210130420A1, “RECOMBINANT BINDING PROTEINS TARGETING HER2 AND SERUM ALBUMIN, AND THEIR USES” (Molecular Partners AG, priority 2016, published 2021)
Substitutions are numbered along the chain they refer to. Entries after “also recorded” stand apart in the source; their conditions may differ.

B1: Protein #21-His: SEQ ID NO: 21 with a His-tag (SEQ ID NO: 1) fused to its N terminus (protein)
chain: MRGSHHHHHHGSDLGKKLLEAARAGQDDEVRELLKAGADVNAKDYFSHTPLHLAARNGHLKIVEVLLKAGADVNAKDFAGKTPLHLAANEGHLEIVEVLLKAGADVNAQDIFGKTPADIAADAGHEDIAEVLQKAAGSPTPTPTTPTPTPTTPTPTPTGSDLGIKLLFAAAKGQDDEVRELLKAGADVNAKDFQGVTPLHIAAQSGHLEIVEVLLKAGADVNAKDVTGDTPLHLAAQHGHLEIVEVLLKAGADVNAQDERGWTPADLAADWGHEDIAEVLQKAAGSPTPTPTTPTPTPTTPTPTPTGSDLGKKLLEAARAGQDDEVRELLKAGADVNAKDEYGLTPLYLATAHGHLEIVEVLLKAGADVNAVDAIGFTPLHLAAFIGHLEIAEVLLKAGADVNAQDKFGKTPADIAAGAGNEDIAEVLQKAAGSPTPTPTTPTPTPTTPTPTPTGSDLGKKLLEAARAGQDDEVRELLKAGADVNAKDYFSHTPLHLAARNGHLKIVEVLLKAGADVNAKDFAGKTPLHLAANEGHLEIVEVLLKAGADVNAQDIFGKTPADIAADAGHEDIAEVLQKAA
modifications: Protein comprising four designed ankyrin repeat domains
B2: Protein #14-His: SEQ ID NO: 14 with a His-tag; stability-improved serum albumin binding designed ankyrin repeat domain, aspartate 80 of SEQ ID NO: 13 mutated to glutamate (protein)
chain: GSDLGKKLLEAARAGQDDEVRELLKAGADVNAKDYFSHTPLHLAARNGHLKIVEVLLKAGADVNAKDFAGKTPLHLAANEGHLEIVEVLLKAGADVNAQDIFGKTPADIAADAGHEDIAEVLQKAA
modifications: His-tag; Designed ankyrin repeat domain
B3: Protein #13-His: SEQ ID NO: 13 with a His-tag; designed ankyrin repeat domain with binding specificity for serum albumin (WO2012/069654) (protein)
chain: B2 chain with E80D
modifications: His-tag; Designed ankyrin repeat domain

Tests used:
[1] = Pharmacokinetic analysis in mouse; type: in vivo
Method: The measurements shown in this example are the result of a half-life engineering effort as described in Example 11. Protein #21-His and Protein #23-His were expressed and purified as described in Example 1. The pharmacokinetic properties of the His-tagged proteins were assessed in mouse as described elsewhere (Zahnd, C., Kawe, M., Stumpp, M. T., de Pasquale, C., Tamaskovic, R., Nagy-Davidescu, G., Dreier, B., Schibli, R., Binz, H. K., Waibel, R., Plückthun, A., Cancer Res. 70, 1595-1605, 2010). […] Having SEQ ID NO: 16 present in the recombinant binding protein thus appears to be more favorable than having SEQ ID NO: 18 present.
Polypeptide linkers that link protein domains are well-known to the person skilled in the art. Gly-Ser-rich linkers are well-known from single-chain Fv antibody fragments, where they have proven to be most appropriate to link the two Fv polypeptide chains. […] Protein #26-His and Protein #27-His, were expressed and purified as described in Example 1. Pharmacokinetic analyses in mouse were performed as described in Example 8.
(§1) For the studies in this example Protein #21-His, Protein #24-His, Protein #28-His, Protein #29-His, and Protein #30-His were prepared according to Example 1. Protein #28-His was additionally PEGylated using a 40 kDa PEG moiety (NOF Sunbright GL2-400MA) by maleimid coupling of the PEG-moiety onto the free C-terminal cysteine of Protein #28-His, followed by purification to homogeneity using standard purification methods, procedures well known to the person skilled in the art. Pharmacokinetic analyses in mouse or cynomolgus monkey were performed as described in Examples 8 and 9.

[2] = system: BT474 human breast carcinoma cells; assay: BT474 breast cancer tumor xenograft mouse model; type: in vivo
Method: Protein #21-His, Protein #23-His, Protein #24-His, Protein #25-His were expressed and purified as described in Example 1. […] BT474 breast cancer tumor xenograft mouse models were essentially performed as follows using procedures well known to the person skilled in the art: BT474 human breast carcinoma cells were cultured, resuspended, and 2*10^7 cells in 200 μl RPMI 1640 medium containing 50:50 matrigel (BD Biosciences) per mouse were injected into the right flank of female Balb/c nude mice. […] Tumor volumes were measured for 32 days.
In a similar study using BT474 cells (identical setup and procedure; all 35 mg/kg doses), Protein #21-His was compared to Protein #23-His, Protein #24-His, and Protein #25-His.

[3] = Pharmacokinetic analysis in cynomolgus monkey; type: in vivo
Method: The measurements shown in this example are the result of a half-life engineering effort as described in Example 11. Protein #21-His, Protein #23-His, and Protein #24-His were expressed and purified as described in Example 1. The pharmacokinetic properties of the proteins were assessed in cynomolgus monkey. Proteins were administered via intravenous infusion for 30 min at a target dose level of between 1 mg/kg to cynomolgus monkeys. Blood samples were collected pre-dose and again at selected time points, for example 5 min, 10 min, 0.5 hours, 1 hour, 2 hours, 4 hours, 8 hours, 12 hours, 24 hours, 48 hours, 72 hours, 96 hours, 120 hours, 144 hours, 168 hours, 192 hours, 216 hours, and 240 hours post-end of infusion (i.e. post-injection). The blood samples were allowed to stand at room temperature and were centrifuged to generate serum, followed by storage at −80° C. pending analyses. Pharmacokinetic parameters were determined using procedures well known to the person skilled in the art. Serum concentrations of proteins were determined by sandwich ELISA using a rabbit monoclonal anti-designed ankyrin repeat domain antibody as capture reagent and murine monoclonal anti-designed ankyrin repeat domain antibody as detection reagent, and using a standard curve. Pharmacokinetic parameters were determined using standard software such as Phoenix WinNonLin (Certara, Princeton, USA) or Graph Pad Prism (GraphPad Software, La Jolla, USA) and standard analyses such as non-compartmental analyses. […] Target mediated clearance is well-known to the person skilled in the art and is known from e.g. antibodies targeting HER2.
Similarly, Protein #21-His was expressed and purified as described in Example 1. The pharmacokinetic properties of the proteins were assessed in cynomolgus monkey as described above at 1 mg/kg, 5 mg/kg and 10 mg/kg.
Similar results are observed when testing Protein #21 (expressed and purified as described in Example 1). The pharmacokinetic properties of the proteins are assessed in cynomolgus monkey as described above at 1 mg/kg, 10 mg/kg and 100 mg/kg. Pharmacokinetic parameters are evaluated as described above.
as §1

[4] = Thermal unfolding, midpoint of thermal denaturation; type: physicochemical; conditions: pH 6.0
From the text: Degradation may for example occur in the vicinity of any one of the 5 asparagines (including asparagine-glycine dipeptides), 13 aspartates, or 10 glycines of SEQ ID NO: 13, amongst additional potential degradation sites. SEQ ID NO: 13 further comprises a number of potential oxidation sites. […] When mutating aspartate at position 80 of SEQ ID NO: 13 to glutamate, a functional designed ankyrin repeat domain with binding specificity for serum albumin was generated, corresponding to SEQ ID NO: 14, which does show a marked improvement in storage stability (Example 3; FIGS. 2A and 2B).

[5] = Storage stability in PBS analysed by SDS-PAGE; type: physicochemical
Method: “Improved storage stability” in the context of the present invention means the reduction of the amounts of a degradation band, preferably the reduction of the amount of degradation products, as detected by a Coomassie-stained SDS-PAGE occurring after storage at 40° C. for 1 month at 10 mg/ml in PBS, by at least 5%, 10%, 15%, 20%, 25%, 30%, 35%, 40%, 45%, 50%, or 50%. Methods to assess storage stability by SDS-PAGE are well known to the person skilled in the art. Examples of designed ankyrin repeat domains and recombinant binding proteins with improved storage stability properties are given in Examples 2 and 3.
Protein #13-His, Protein #14-His and Protein #15-His were prepared as described in Example 1, and samples were concentrated to 10 mg/ml in PBS. Protein #14-His and Protein #15-His where then stored for 1 month at −80° C. or at 40° C. in glass vials, followed by analysis on SDS 15% PAGE. […] These findings illustrate that Protein #14-His has improved storage stability compared to Proteins #13-His and Protein #15-His.
A storage stability improvement is also observed, when testing the storage stability of Protein #21 and Protein #22 (recombinant binding proteins consisting of the amino acid sequences corresponding to SEQ ID NOs: 21 and 22, respectively). Protein #21 and Protein #22 are prepared as described in Example 1, samples are concentrated to 10 mg/ml in PBS and stored for 1 month at −80° C. in or at 40° C. in glass vials, followed by analysis on standard size-exclusion chromatography.

Row | Molecule | % ID remaining after 48 hours [1] [% ID] | terminal half-life [1] [h] | inhibition of tumor growth ([2]; Protein #21-His 35 mg/kg, Trastuzumab 10 mg/kg, i.v. Q3Dx7, tumor volumes measured for 32 days, FIG. 4A) | tumor suppression compared to Protein #24-His ([2]; after 32 days of treatment, FIG. 4B) | tumor suppression compared to other recombinant binding proteins ([2]; all 35 mg/kg doses, day 18 of treatment, FIG. 4B) | concentration below which target-mediated clearance is observed [3] | terminal half-life ([3]; 1 mg/kg, intravenous infusion) [h] | midpoint of thermal denaturation Tm [4] [°C] | stability upon storage at −80° C. ([5]; 10 mg/ml in PBS, 1 month at −80° C., SDS 15% PAGE) | reduction of degradation products compared to Protein #15-His ([5]; 10 mg/ml in PBS, glass vials, 1 month at 40° C., SDS 15% PAGE) [%] | reduction of degradation products compared to Protein #13-His ([5]; 10 mg/ml in PBS, one week at 40° C., SDS 15% PAGE) [%] | reduction of degradation products compared to Protein #13-His ([5]; 10 mg/ml in PBS, one week at 60° C., SDS 15% PAGE) [%] | degradation upon prolonged incubation ([5]; in PBS at 10 mg/ml at 40° C.)
1 | B1 | 19.5 | 30.4 | more efficacious in inhibiting tumor growth than Trastuzumab | significantly better tumor suppression than Protein #24-His | more efficacious in suppressing tumors than Protein #23-His, Protein #24-His, or Protein #25-His; also recorded: significantly more efficacious in inhibiting tumor growth than Protein #24-His | below 100 nM | 47 |  |  |  |  |  | 
2 | B2 |  |  |  |  |  |  |  | 89.5 | equivalent stability | > 50 | > 50 | > 50 | 
3 | B3 |  |  |  |  |  |  |  | 86 |  |  |  |  | degrade
